From PMC6515479, “An Investigation on Glucuronidation Metabolite Identification, Isozyme Contribution, and Species Differences of GL-V9 In Vitro and In Vivo” (Molecules, 2019)

Columns and labels:
Type in all cases: in vitro ADME, human
[1] = substrate: COc1c(OCCCCN2CCCC2)cc(O)c2c(=O)cc(-c3ccccc3)oc12; test: Recombinant enzyme kinetics of GL-V9 glucuronidation, rUGT1A8; settings: other: formation of 5-O-glucuronide GL-V9, rUGT1A8, protein 0.06 mg/mL, 1 h at 37 °C, mean ± SD, n = 3, pH 7.4
Procedure: [The source words this procedure for another target and says it was used here with some conditions changed.] (§1) The composition of the incubation system (200 μL) contained liver microsomes of different species (0.1 mg protein/mL), 5 mM saccharolactone (D-saccharic acid 1,4-lactone monohydrate), 10 mM MgCl2, alamethicin (50 μg/mg protein), Tris-HCl buffer (50 mM, pH 7.4) and GL-V9 (1 μM). After 5 min of preincubation at 37 °C, UDPGA (5 mM) was added to initiate the phase II reaction. Control incubation samples were performed without UDPGA or without substrates (GL-V9). The reaction was terminated by addition of ice-cold methanol (three volumes) after incubation for 1 h at 37 °C. Samples were vortexed, centrifuged at 21,500× g for 10 min and then stored at 4 °C until HPLC-UV-TripleTOF analysis. To confirm that these metabolites are conjugates resulting from glucuronidation reaction, enzymatic hydrolysis of samples was processed. β-glucuronidase (100 KU, Sigma) was added and the hydrolysis was performed overnight at 37 °C. The control samples were carried out without β-glucuronidase under the same condition.
(§2) Rates of the glucuronidation of GL-V9 were described as amounts of glucuronides formed per minute per milligram (pmol/min/mg). The calculation model of kinetic parameters was selected by the profile of Eadie-Hofstee plots. It often includes three possibilities: (1) the Eadie-Hofstee plot was linear, the formation rates of glucuronides (V) at different substrate concentrations (C) were fit to the standard Michaelis-Menten calculation of GraphPad Prism (version 6.02, GraphPad Software Inc., Guildford, Surrey, UK); (2) the Eadie-Hofstee plot was atypical kinetic-autoactivation, the rates and concentration were fit with the allosteric sigmoidal function of GraphPad Prism; (3) the Eadie-Hofstee plot was atypical kinetic-biphasic, the rates and concentration were fit with the […] of GraphPad Prism.

[2] = substrate: COc1c(OCCCCN2CCCC2)cc(O)c2c(=O)cc(-c3ccccc3)oc12; test: Recombinant enzyme kinetics of GL-V9 glucuronidation, rUGT1A7; settings: other: formation of 5-O-glucuronide GL-V9, rUGT1A7, protein 0.05 mg/mL, 1 h at 37 °C, mean ± SD, n = 3, pH 7.4
Procedure: [The source words this procedure for another target and says it was used here with some conditions changed.] as §1, §2

[3] = substrate: COc1c(OCCCCN2CCCC2)cc(O)c2c(=O)cc(-c3ccccc3)oc12; test: Recombinant enzyme kinetics of GL-V9 glucuronidation, rUGT1A9; settings: other: formation of 5-O-glucuronide GL-V9, rUGT1A9, protein 0.06 mg/mL, 1 h at 37 °C, mean ± SD, n = 3, pH 7.4

B1: rUGT1A8 (Homo sapiens) (protein)
chain: GKLLVVPMDGSHWFTMQSVVEKLILRGHEVVVVMPEVSWQLGKSLNCTVKTYSTSYTLEDLDREFMDFADAQWKAQVRSLFSLFLSSSNGFFNLFFSHCRSLFNDRKLVEYLKESSFDAVFLDPFDACGLIVAKYFSLPSVVFARGIACHYLEEGAQCPAPLSYVPRILLGFSDAMTFKERVRNHIMHLEEHLFCQYFSKNALEIASEILQTPVTAYDLYSHTSIWLLRTDFVLDYPKPVMPNMIFIGGINCHQGKPLPMEFEAYINASGEHGIVVFSLGSMVSEIPEKKAMAIADALGKIPQTVLWRYTGTRPSNLANNTILVKWLPQNDLLGHPMTRAFITHAGSHGVYESICNGVPMVMMPLFGDQMDNAKRMETKGAGVTLNVLEMTSEDLENALKAVINDKSYKENIMRLSSLHKDRPVEPLDLAVFWVEFVMRHKGAPHLRPAAHDLTWYQYHSLDVIGFLLAVVLTVAFITFKCCAYGYRKCLGKKGRVKKAHKSKTH
notes: purchased Corning (Woburn, MA, USA)
[1]
  Km: 13.92 ± 1.05 µM
  Vmax: 5.06e-05 µmol/min/mg
  Vmax/Km: 3.64 µL/min/mg

B2: rUGT1A7 (Homo sapiens) (protein)
chain: GKLLVVPMDGSHWFTMQSVVEKLILRGHEVVVVMPEVSWQLGRSLNCTVKTYSTSYTLEDQDREFMVFADARWTAPLRSAFSLLTSSSNGIFDLFFSNCRSLFNDRKLVEYLKESCFDAVFLDPFDACGLIVAKYFSLPSVVFARGIFCHYLEEGAQCPAPLSYVPRLLLGFSDAMTFKERVWNHIMHLEEHLFCPYFFKNVLEIASEILQTPVTAYDLYSHTSIWLLRTDFVLEYPKPVMPNMIFIGGINCHQGKPVPMEFEAYINASGEHGIVVFSLGSMVSEIPEKKAMAIADALGKIPQTVLWRYTGTRPSNLANNTILVKWLPQNDLLGHPMTRAFITHAGSHGVYESICNGVPMVMMPLFGDQMDNAKRMETKGAGVTLNVLEMTSEDLENALKAVINDKSYKENIMRLSSLHKDRPVEPLDLAVFWVEFVMRHKGAPHLRPAAHDLTWYQYHSLDVIGFLLAVVLTVAFITFKCCAYGYRKCLGKKGRVKKAHKSKTH
notes: as for B1
[2]
  Km: 3.25 ± 0.29 µM
  Vmax: 3.11e-05 µmol/min/mg
  Vmax/Km: 9.58 µL/min/mg

B3: rUGT1A9 (Homo sapiens) (protein)
chain: GKLLVVPMDGSHWFTMRSVVEKLILRGHEVVVVMPEVSWQLGRSLNCTVKTYSTSYTLEDLDREFKAFAHAQWKAQVRSIYSLLMGSYNDIFDLFFSNCRSLFKDKKLVEYLKESSFDAVFLDPFDNCGLIVAKYFSLPSVVFARGILCHYLEEGAQCPAPLSYVPRILLGFSDAMTFKERVRNHIMHLEEHLLCHRFFKNALEIASEILQTPVTEYDLYSHTSIWLLRTDFVLDYPKPVMPNMIFIGGINCHQGKPLPMEFEAYINASGEHGIVVFSLGSMVSEIPEKKAMAIADALGKIPQTVLWRYTGTRPSNLANNTILVKWLPQNDLLGHPMTRAFITHAGSHGVYESICNGVPMVMMPLFGDQMDNAKRMETKGAGVTLNVLEMTSEDLENALKAVINDKSYKENIMRLSSLHKDRPVEPLDLAVFWVEFVMRHKGAPHLRPAAHDLTWYQYHSLDVIGFLLAVVLTVAFITFKCCAYGYRKCLGKKGRVKKAHKSKTH
notes: as for B1
[3]
  Km: 4.72 ± 0.28 µM
  Vmax: 0.000148 µmol/min/mg
